The results in this text go back to US20130136736A1 (Ablynx, published 2013).

In test [1] the target is ultra-large von Willebrand factor (ULvWF) (human) (UniProt P04275). The test is described as follows: cell-based or functional assay.
In test [2] the target is T1, human von Willebrand Factor (vWF) (human, UniProt P04275 764-2813).
T1 construct: Multimeric plasma protein; The species of the vWF on the BIACORE chip and ELISA plates is not restated there; also called vWF (Red Cross); human vWF
Briefly: BIACORE (SPR): vWF amine-coupled to a CM5 chip, nanobody injected at 1.3 nM. (In general: SPR reads the build-up and loss of mass on a sensor chip optically.)
Procedure: (§1) The CM5 surface of the chip was activated by the injection of EDC/NHS (1:1 mix of 0.4 M 1-ethyl-3-(3-dimethylaminopropyl)-carbodiimide and 0.1 M N-hydroxysuccinimide in water) for 7 minutes. […] The excess of reactive groups was deactivated with 1 M Ethanolamine-HCl (pH 8.5) for 7 minutes. The flowrate was kept constant during the immobilization procedure at 5 ul/min The eluent buffer was 0.01 M HEPES (pH 7.4) with 0.15 M NaCl, 3 mM EDTA and 0.005% Surfactant P20.

Test [3] addresses T1, human von Willebrand Factor (vWF). Briefly: ELISA: vWF coated on the plate, nanobody titrated in 3-fold steps, detection with mouse anti-myc and anti-mouse-HRP, OD 405 nm. A general note: In an ELISA, binding on a coated surface is turned into a signal by an enzyme label.
The target is the same in test [4]. The test is described as follows: ELISA: vWF coated on the plate, nanobody titrated from 10 µg/ml in 3-fold steps, detection with mouse anti-myc and anti-mouse-HRP, OD 405 nm.
Procedure: The plate was coated overnight at 4° C. The plate was then washed with PBS-Tween and blocked for two hours at room temperature with PBS-1% casein. After washing, the samples were applied starting at a concentration of 10 μg/ml and 3-fold dilutions were made in PBS. After a two hours incubation period, the plates were washed and mouse monoclonal anti-myc antibody at a 1000-fold dilution was applied for 1 hour at room temperature. The plates were washed and polyclonal anti-mouse-HRP (DAKO) was applied at a 1000-fold dilution for one hour at room temperature. The plates were washed and ABTS/H₂O₂ substrate was applied. The OD 405 nm was measured.
Test [5] has the same target. The test is described as follows: ELISA: vWF coated on the plate, nanobody titrated in 3-fold steps, detection with mouse anti-myc and anti-mouse-HRP, OD 405 nm. The source holds these as a separate data set.
Test [6] shares this target. The test is described as follows: BIACORE (SPR): vWF amine-coupled to a CM5 chip, nanobody injected at 1.3 nM. The source holds these as a separate data set.
Procedure: as §1

In the case of “ADAMTS-13 (from UniProt Q76LX8 75-1427) (enzyme)”, in test [1], the cleavage of ULvWF platelet strings on perfusion of pooled normal plasma containing ADAMTS-13 is over 95%; the cleavage of ULvWF platelet strings on perfusion of pooled normal plasma containing ADAMTS-13 and ALX-0081 (10 µg/ml) turned out to be 95%.

B1: 12B6-GS30-12B6 (VHH)
chain: QVQLVESGGGLVQAGGALRLSCAASGRTFSYNPMGWFRQAPGKERDVVAAISRTGGSTYYARSVEGRFTISRDNAKRMVYLQMNALKPEDTAVYYCAAAGVRAEDGRVRTLPSEYNFWGQGTQVTVSSGGGGSGGGGSGGGGSGGGGSGGGGSGGGGSEVQLVESGGGLVQAGGALRLSCAASGRTFSYNPMGWFRQAPGKERDVVAAISRTGGSTYYARSVEGRFTISRDNAKRMVYLQMNALKPEDTAVYYCAAAGVRAEDGRVRTLPSEYNFWGQGTQVTVSS
notes: also called bivalent 12B6
With B1, the binding result in test [2] is “binds”.

B2: 12A5H1 (VHH)
VHH: EVQLVESGGGLVQPGGSLRLSCAASGRIFSIGAMGMYRQAPGKGRELVATITSGGSTNYADPVKGRFTISRDGPKNTVYLQMNSLRAEDTAVYYCYANLKQGSYGYRFNDYWGQGTQVTVSS
notes: Humanised 12A5, monovalent; TALON-purified, so His-tagged
Broadly, the EC50 (read off the curve) is the midpoint of the concentration-response curve. Low values mean higher potency in that assay, high ones lower potency in that assay. As for B2, in test [3], the half-maximal effective concentration (EC50 (read off the curve)) was about 0.005 µg/mL.

B3: 12A5H2 (VHH)
VHH: EVQLVESGGGLVQPGGSLRLSCAASGRIFSIGAMGMYRQAPGKGRELVATITSGGSTNYADPVKGRFTISRDGAKNTVYLQMNSLRAEDTAVYYCYANLKQGSYGYRFNDYWGQGTQVTVSS
notes: as for B2
Take B3: the concentration for a half-maximal effect (EC50 (read off the curve)) in test [3] was about 0.03 µg/mL.

B4: 12B6 (VHH)
VHH: QVQLVESGGGLVQAGGALRLSCAASGRTFSYNPMGWFRQAPGKERDVVAAISRTGGSTYYARSVEGRFTISRDNAKRMVYLQMNALKPEDTAVYYCAAAGVRAEDGRVRTLPSEYNFWGQGTQVTVSS
notes: Monovalent llama Nanobody; TALON-purified and detected with anti-myc, so tagged (myc/His)
B4: the “EC50 (read off the curve)” value in test [4] is about 0.02 µg/mL.

B5: 12B6H1 (VHH)
VHH: EVQLVESGGGLVQPGGSLRLSCAASGRTFSYNPMGWFRQAPGKGRDVVAAISRTGGSTYYARSVEGRFTISRDNAKRMVYLQMNSLRAEDTAVYYCAAAGVRAEDGRVRTLPSEYNFWGQGTQVTVSS
notes: Humanised 12B6, monovalent
In the case of B5, the “EC50 (read off the curve)” value in test [5] is about 0.02 µg/mL.

B6: 12B6H2 (VHH)
VHH: EVQLVESGGGLVQPGGSLRLSCAASGRTFSYNPMGWFRQAPGKGREVVAAISRTGGSTYYARSVEGRFTISRDNAKRMVYLQMNSLRAEDTAVYYCAAAGVRAEDGRVRTLPSEYNFWGQGTQVTVSS
notes: Humanised 12B6, monovalent
B6: in test [5], the half-maximal effective concentration (EC50 (read off the curve)) was about 0.01 µg/mL.

B7: 12C9 (VHH)
VHH: AVQLVESGGGLVQPGGSLKLSCATSGSIFSSSAMAWYRQASGKQRELVATITSGGRTSYADSVKGRFTISRDNAKNTVYLQMNSLKPEDTAVYDCNFVVDGKRAPWGQGTQVTVSS
notes: as for B4
For the molecule B7, the binding result in test [4] is given as “binds”.

B8: 12B6-GS9-12B6 (VHH)
chain: QVQLVESGGGLVQAGGALRLSCAASGRTFSYNPMGWFRQAPGKERDVVAAISRTGGSTYYARSVEGRFTISRDNAKRMVYLQMNALKPEDTAVYYCAAAGVRAEDGRVRTLPSEYNFWGQGTQVTVSSGGGGSGGGSEVQLVESGGGLVQAGGALRLSCAASGRTFSYNPMGWFRQAPGKERDVVAAISRTGGSTYYARSVEGRFTISRDNAKRMVYLQMNALKPEDTAVYYCAAAGVRAEDGRVRTLPSEYNFWGQGTQVTVSS
notes: also called bivalent 12B6
In the case of B8, in test [2], the binding result is “binds”.

B9: 12A2-GS9-12A2 (VHH)
chain: QVKLEESGGGLVQAGGALRLSCAASGRTFSYNPMGWFRQAPGKERDLVAAISRTGGSTYYPDSVEGRFTISRDNAKRMVYLQMNNLKPEDTAVYYCAAAGVRAEDGRVRTLPSEYTFWGQGTQVTVSSGGGGSGGGSEVQLVESGGGLVQAGGALRLSCAASGRTFSYNPMGWFRQAPGKERDLVAAISRTGGSTYYPDSVEGRFTISRDNAKRMVYLQMNNLKPEDTAVYYCAAAGVRAEDGRVRTLPSEYTFWGQGTQVTVSS
notes: also called bivalent 12A2
Take B9: the binding result in test [6] was “binds”.

B10: 12B6-3a-12B6 (VHH)
chain: QVQLVESGGGLVQAGGALRLSCAASGRTFSYNPMGWFRQAPGKERDVVAAISRTGGSTYYARSVEGRFTISRDNAKRMVYLQMNALKPEDTAVYYCAAAGVRAEDGRVRTLPSEYNFWGQGTQVTVSSAAAEVQLVESGGGLVQAGGALRLSCAASGRTFSYNPMGWFRQAPGKERDVVAAISRTGGSTYYARSVEGRFTISRDNAKRMVYLQMNALKPEDTAVYYCAAAGVRAEDGRVRTLPSEYNFWGQGTQVTVSS
notes: also called bivalent 12B6
Turning to B10, the binding result in test [2] is on record as “binds”.

B11: 12A2-3a-12A2 (VHH)
chain: QVKLEESGGGLVQAGGALRLSCAASGRTFSYNPMGWFRQAPGKERDLVAAISRTGGSTYYPDSVEGRFTISRDNAKRMVYLQMNNLKPEDTAVYYCAAAGVRAEDGRVRTLPSEYTFWGQGTQVTVSSAAAEVQLVESGGGLVQAGGALRLSCAASGRTFSYNPMGWFRQAPGKERDLVAAISRTGGSTYYPDSVEGRFTISRDNAKRMVYLQMNNLKPEDTAVYYCAAAGVRAEDGRVRTLPSEYTFWGQGTQVTVSS
notes: also called bivalent 12A2
Regarding B11, in test [6], the binding result is “binds”.

B12: 12B1 (VHH)
VHH: QVQLVESGGGLVQAGGSLRLSCAASGRTFSNYGMGWFRQAPGKEREFVTSISWSGTYTAYSDNVKGRFTISRDNAKNTVYLQMDSLKPEDTAVYYCAAQSRYRSNYYDHDDKYAYWGQGTQVTVSS
notes: as for B4
B12: the “EC50 (read off the curve)” value in test [4] is about 0.02 µg/mL.

B13: 12E3 (VHH)
VHH: EVQLVESGGGLVQAGGSLRLSCAASGRTFNNYGMGWFRQAPGKEREFVTSISWSGSYTAYADNVKGRFTISRDNAKNTVYLQMDSLKPGDTAVYYCAAQSRYSSNYYDHDDKYAYWGQGTQVTVSS
notes: as for B4
B13: in test [4], the binding result is recorded as “binds”.

B14: 14F8 (VHH)
VHH: AVQLVESGGGLVQAGESLRLSCTSSGRAFSYYNTGWFRQAPGKEREFVAAISWSGGLTYYADSVKGRFTISRDNAKDMVYLQMASLKPEDTAVYYCAANRRQKTVQMGERAYDYWGQGTQVTVSS
notes: as for B4
Consider B14, for which, in test [4], the “EC50 (read off the curve)” value is about 0.02 µg/mL.

B15: 12D11 (VHH)
VHH: AVQLVDSGGGLVQAGGSLRLSCTASERTTFSSYTLGWFRQAPGKEREFVGGISWSGVSTDYAEFAKGRFTISRDHAANTVYLEMNSLKPEDTAVYYCAALGRYRSNWRNIGQYDYWGQGTQVTVSS
notes: as for B4
On to B15, for which, in test [4], the binding result is “binds”.
